According to US20220119792:

Assays:
[1] = target: HAK-DEVD-hGH expressed from pAPT-Y-HAK-DEVD-hGH-Lacuv5-rev-CASP3
[2] = target: KH6-DEVD-hGH expressed from pAPT-Y-KH6-DEVD-hGH-Lacuv5-rev-CASP3
[3] = target: H6-DEVD-hGH expressed from pAPT-Y-H6-DEVD-hGH-Lacuv5-rev-CASP3
[4] = target: AH6-DEVD-hGH expressed from pAPT-Y-AH6-DEVD-hGH-Lacuv5-rev-CASP3
[5] = target: NH6-DEVD-hGH expressed from pAPT-Y-NH6-DEVD-hGH-Lacuv5-rev-CASP3
[6] = target: DH6-DEVD-hGH expressed from pAPT-Y-DH6-DEVD-hGH-Lacuv5-rev-CASP3
[7] = target: H6-DEVD-hGH expressed from pETDuet-H6-DEVD-hGH-T7-rev-CASP3
H6-DEVD-hGH expressed from pETDuet-H6-DEVD-hGH-T7-rev-CASP3, sequence (chain, as listed by the source): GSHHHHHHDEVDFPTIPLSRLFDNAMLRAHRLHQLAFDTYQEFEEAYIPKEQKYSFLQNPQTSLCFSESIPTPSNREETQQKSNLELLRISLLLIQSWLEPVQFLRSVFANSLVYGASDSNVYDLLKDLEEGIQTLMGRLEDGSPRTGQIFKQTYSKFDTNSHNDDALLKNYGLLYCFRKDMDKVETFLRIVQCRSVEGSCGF

KH6-DEVD-hGH expressed from pAPT-Y-KH6-DEVD-hGH-Lacuv5-rev-CASP3, sequence (chain, as listed by the source): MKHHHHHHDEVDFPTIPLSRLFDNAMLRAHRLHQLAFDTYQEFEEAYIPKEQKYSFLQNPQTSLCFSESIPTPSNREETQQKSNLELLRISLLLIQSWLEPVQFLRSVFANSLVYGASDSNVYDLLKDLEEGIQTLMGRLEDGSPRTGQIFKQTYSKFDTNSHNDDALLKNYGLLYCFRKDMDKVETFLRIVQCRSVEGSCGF
DH6-DEVD-hGH expressed from pAPT-Y-DH6-DEVD-hGH-Lacuv5-rev-CASP3, sequence (chain, as listed by the source): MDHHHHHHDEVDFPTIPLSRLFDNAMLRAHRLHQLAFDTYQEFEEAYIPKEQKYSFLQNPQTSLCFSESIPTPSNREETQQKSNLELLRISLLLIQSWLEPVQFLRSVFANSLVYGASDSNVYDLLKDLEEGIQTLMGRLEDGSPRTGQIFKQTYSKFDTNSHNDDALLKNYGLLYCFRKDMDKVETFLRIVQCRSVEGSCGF
HAK-DEVD-hGH expressed from pAPT-Y-HAK-DEVD-hGH-Lacuv5-rev-CASP3, sequence (chain, as listed by the source): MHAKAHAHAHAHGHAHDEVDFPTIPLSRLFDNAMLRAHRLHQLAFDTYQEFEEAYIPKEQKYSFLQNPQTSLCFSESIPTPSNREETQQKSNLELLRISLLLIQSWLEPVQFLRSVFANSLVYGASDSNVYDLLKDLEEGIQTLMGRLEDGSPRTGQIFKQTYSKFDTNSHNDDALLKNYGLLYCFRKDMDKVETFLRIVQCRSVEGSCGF
H6-DEVD-hGH expressed from pAPT-Y-H6-DEVD-hGH-Lacuv5-rev-CASP3, sequence (chain, as listed by the source): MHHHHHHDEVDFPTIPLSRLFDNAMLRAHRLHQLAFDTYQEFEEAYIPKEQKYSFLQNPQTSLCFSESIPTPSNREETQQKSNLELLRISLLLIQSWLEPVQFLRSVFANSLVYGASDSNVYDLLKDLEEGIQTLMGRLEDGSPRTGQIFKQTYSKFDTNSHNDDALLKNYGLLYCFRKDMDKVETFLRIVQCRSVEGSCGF
NH6-DEVD-hGH expressed from pAPT-Y-NH6-DEVD-hGH-Lacuv5-rev-CASP3, sequence (chain, as listed by the source): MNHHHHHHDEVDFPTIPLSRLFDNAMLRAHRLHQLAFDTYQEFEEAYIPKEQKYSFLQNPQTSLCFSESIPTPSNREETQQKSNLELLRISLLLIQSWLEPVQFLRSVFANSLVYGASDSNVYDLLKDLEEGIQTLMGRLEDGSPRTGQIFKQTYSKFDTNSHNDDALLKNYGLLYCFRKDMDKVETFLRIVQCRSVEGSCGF
AH6-DEVD-hGH expressed from pAPT-Y-AH6-DEVD-hGH-Lacuv5-rev-CASP3, sequence (chain, as listed by the source): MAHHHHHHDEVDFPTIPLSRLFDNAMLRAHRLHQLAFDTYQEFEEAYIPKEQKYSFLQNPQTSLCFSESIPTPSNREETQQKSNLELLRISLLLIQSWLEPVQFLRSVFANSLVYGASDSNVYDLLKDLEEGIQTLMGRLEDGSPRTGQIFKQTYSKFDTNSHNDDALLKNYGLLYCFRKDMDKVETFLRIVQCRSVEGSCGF

B1: reverse caspase-3 (protein)
chain: MIETDSGVDDDMACHKIPVEADFLYAYSTAPGYYSWRNSKDGSWFIQSLCAMLKQYADKLEFMHILTRVNRKVATEFESFSFDATFHAKKQIPCIVSMLTKELYFYHDEVDGENTENSVDSKSIKNLEPKIIHGSESMDSGISLDNSYKMDYPEMGLCIIINNKNFHKSTGMTSRSGTDVDAANLRETFRNLKYEVRNKNDLTREEIVELMRDVSKEDHSKRSSFVCVLLSHGEEGIIFGTNGPVDLKKITNFFRGDRCRSLTGKPKLFIIQACRGTELDCGIETD
Q: With B1 as the protein, how does the “cleavage of synthetic tag (Western blot, co-expression in E. coli)” value (from here on “cleavage of synthetic tag”) [1] read?
A: Its value is 99.30% or more of the synthetic tag was cleaved.

Q: What about the “cleavage of synthetic tag” value [2] of the same protein?
A: Its value is 99.30% or more of the synthetic tag was cleaved.

Q: And the “cleavage of synthetic tag” value [3]?
A: Its value is 99.30% or more of the synthetic tag was cleaved.

Q: And the “cleavage of synthetic tag” value [4]?
A: Its value is 99.30% or more of the synthetic tag was cleaved.

Q: What about the “cleavage of synthetic tag” value [5] of the same protein?
A: Its value is 99.30% or more of the synthetic tag was cleaved.

Q: What about the “cleavage of synthetic tag” value [6] of the same protein?
A: Its value is 99.30% or more of the synthetic tag was cleaved.

Q: What about the “cleavage of N-terminal methionine and synthetic tag (Western blot, co-expression in E. coli)” value [7] of the same protein?
A: The value was 96.12% of the N-terminal methionine of the growth hormone protein and the synthetic tag was cleaved.
